The target in this assay is Mycobacterium thermoresistibile (Mth) Class Ib ribonucleotide reductase catalytic α-subunit (NrdE), purified alone (M. thermoresistibile). Description: SEC-MALS. On the technique in general: In gel filtration, larger molecules generally elute earlier.

Broadly, the stoichiometry N is a count of units in the complex or per binding partner. “Mycobacterium thermoresistibile (Mth) Class Ib ribonucleotide reductase catalytic α-subunit (NrdE), purified alone (enzyme)” gave a stoichiometry N of 2.

The values above are taken from article doi:10.64898/2025.12.21.695763.
